Molecular target: T1, BACE2 (Homo sapiens, UniProt Q9Y5Z0)
T1 construct: purchased R&D Systems
T1 sequence (Q9Y5Z0 63-518): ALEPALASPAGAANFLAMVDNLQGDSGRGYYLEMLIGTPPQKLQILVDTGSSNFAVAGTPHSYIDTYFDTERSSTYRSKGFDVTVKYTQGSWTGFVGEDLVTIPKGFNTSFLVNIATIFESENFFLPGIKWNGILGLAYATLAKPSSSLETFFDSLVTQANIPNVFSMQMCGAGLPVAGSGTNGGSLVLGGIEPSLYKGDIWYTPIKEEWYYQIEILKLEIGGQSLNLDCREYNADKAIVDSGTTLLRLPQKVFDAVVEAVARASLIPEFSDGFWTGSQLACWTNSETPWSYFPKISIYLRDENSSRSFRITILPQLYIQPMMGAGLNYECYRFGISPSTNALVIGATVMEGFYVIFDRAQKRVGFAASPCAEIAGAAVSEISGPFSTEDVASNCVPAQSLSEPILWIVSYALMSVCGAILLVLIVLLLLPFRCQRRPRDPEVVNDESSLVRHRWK
Assay: Cleavage of biotinylated Aβ by BACE2, immunoprecipitation/mass spectrometry (IP/MS)
Type: biochemical
Conditions: peptide 300 nM, BACE2 5 nM, within 1 h; 25 mM acetate buffer pH 4.0, 0.1% BSA; product Aβ34; SELDI-TOF MS
Procedure: We next investigated which peptide bond(s) within Aβ are hydrolyzed by BACE2 and BACE1. To that end, we co-incubated N-terminally biotinylated Aβ40 or Aβ42 (300nM) with BACE2 (5 nM) and analyzed the products by immunoprecipitation/mass spectrometry (IP/MS) (see Methods). […] To test whether any additional cleavages can occur, we incubated N-terminally biotinylated Aβ40 (300 nM) with a larger amount of BACE2 (25 nM) for 1 and 24 h. At these higher concentrations and longer incubation times, Aβ19 and Aβ20 were the principal N-terminal fragments remaining at the end of the reaction (Figure 3E-F).
The cleavage sites within Aβ40 and Aβ42 hydrolyzed by BACE2 and BACE1 were determined essentially as described with minor modifications. Briefly, Aβ peptides or biotinylated Aβ peptides were incubated for various lengths of time with recombinant BACE2 enzyme in Assay Buffer (25 mM acetate buffer, pH 4.0, supplemented with 0.1% BSA). The reaction was stopped by addition of protease inhibitor cocktail and pH adjustment. Aβ fragments were immediately precipitated by magnetic beads coated with streptavidin (for biotinylated Aβ) or magnetic beads coated with Ab9 antibody (for unmodified Aβ). […] Digested products were spotted onto a gold chip, dried, and analyzed using a Ciphergen ProteinChip SELDI time-of-flight system (Bio-Rad). […]

Row | Substance | extent of hydrolysis by BACE2
1 | N-terminally biotinylated Aβ40: Aβ40 biotinylated at the N-terminus, substrate for IP/MS | almost completely hydrolyzed
2 | N-terminally biotinylated Aβ42: Aβ42 biotinylated at the N-terminus, substrate for IP/MS | almost completely hydrolyzed

Source: article PMC3470943, “Identification of BACE2 as an avid ß-amyloid-degrading protease” (Molecular Neurodegeneration, 2012)
